Results taken from the RNAGym collection of RNA variant scans (doi:10.7554/elife.80360).

B1: CPEB3 Ribozyme (parent)
chain: GGGGGCCACAGCAGAAGCGUUCACGUCGCGGCCCCUGUCAGAUUCUGGUGAAUCUGCGAAUUCUGCUGU

Variants of: B1
Experiment: self-cleavage, relative activity (ratio to wild type); higher = more cleavage; co-transcriptional

Variant	self-cleavage
C7A A15C	0.162
C7A A15G	0.457
C7A G17C	0.14
C7A G17U	0.126
C7A G17A	0.0679
C7G G28U	0.0797
C6U C27G	0.199
C6U C27A	0.369
C7A A60C	0.152
C7A A60U	0.225
C7G A10G	0.671
C7G A10C	0.703
C7G A10U	0.683
C7A C39A	0.186
C7A C39U	0.348
C7A A40U	0.147
C7A A40C	0.15
C6U C39G	0.899
C6U C39U	0.955
C6U G41C	0.708
C6U G41A	0.815
C7G G68A	0.824
C7G G68U	0.808
C7G A8G	0.346

Variant	self-cleavage
C7G A8U	0.614
C7G A8C	0.514
C6U C32G	0.246
C6U C32U	0.826
C7A G31C	0.159
C7A G31A	0.499
C7G A13G	0.238
C7G A13U	0.122
C7A C29U	0.261
C7A C29G	0.12
C7A G56C	0.243
C7A G56A	0.34
C7G G19U	0.0728
C7G G19A	0.0606
C6U C45U	1
C6U C45G	1.02
C6U C45A	1.02
C6U U49C	1.02
C7A U61G	0.378
C7A U61C	0.232
C6U C35A	0.189
C6U U62G	0.783
C6U U62A	0.873
C7A U49C	0.601

Variant	self-cleavage
C7A U49G	0.409
C7A U49A	0.601
C7G U36C	0.0551
C7G U36G	0.147
C7A U46G	0.654
C7A U46C	0.587
C6U U46G	0.987
C6U U46A	0.944
C6U U46C	1
C6U U38C	0.929
C6U U38G	0.12
C7A A23U	0.824
C7A A23G	0.421
C7G C63A	0.237
C7G C63G	0.113
C7G C63U	0.316
C7G C24G	0.0776
C7G C24U	0.107
C7A A13G	0.598
C7A A13U	0.274
C6U G47C	0.996
C6U G47A	1.01
C6U G47U	1.02
C7G C22U	0.128

Variant	self-cleavage
C7A G48U	0.696
C7A G48A	0.67
C7G G50U	0.465
C7G G50C	0.294
C7G G50A	0.456
C6U G17C	0.0825
C6U G17A	0.315
C6U C24A	0.582
C6U C24U	0.709
C7A U21C	0.266
C7A U21A	0.576
C7A U21G	0.077
C6U U55G	0.888
C6U U55A	0.989
C6U U55C	0.775
C6U U44A	0.887
C6U U44C	0.933
C7A C34G	0.136
C7A C34A	0.106
C7A C34U	0.487
C7A C57U	0.172
C7A C57A	0.173
C7G G30U	0.564
C7A U36C	0.223

Variant	self-cleavage
C7A U36G	0.205
C7G U20G	0
C7G U20A	0.163
C7G U20C	0.143
C7A G11A	0.401
C7A G11U	0.315
C7G G25U	0.0759
C7G G25C	0.0905
C6U U20G	0.174
C7G A52U	0.301
C7G A52C	0.42
C7A C33A	0.119
C7A C33G	0.226
C7A C33U	0.489
C6U C22G	0.205
C7G U44G	0.252
C7G U44A	0.28
C7G U44C	0.282
C7G A15G	0.248
C7G A15C	0.0463
C7A G28A	0.128
C7A G28C	0.11
C7A G28U	0.128
C7A C27A	0.0789

Variant	self-cleavage
C7A C27G	0.133
C7A C27U	0.142
C7G G31C	0.101
C7G G31U	0.521
C7G G31A	0.45
C6U G65U	0.719
C6U G65C	0.636
C6U G11U	0.876
C6U G11C	0.828
C7G G65C	0.126
C7G G65U	0.217
C7G G65A	0.162
C6U U36A	0.221
C6U U36G	0.127
C6U G58C	0.909
C6U G58A	0.981
C7G G11A	0.281
C7G G47A	0.452
C7A G41C	0.146
C7G U26C	0.247
C7A G65A	0.496
C7A G65C	0.314
C7A G65U	0.198
C7A A52C	0.412

Variant	self-cleavage
C7A A52U	0.466
C6U G37C	0.154
C6U G37U	0.169
C6U G37A	0.22
C7G U46C	0.38
C7G U46A	0.453
C7A U55C	0.208
C7A U55G	0.194
C7A U55A	0.333
C7G A51C	0.306
C7G A51U	0.34
C7G A51G	0.455
C7A C66A	0.354
C7A C66G	0.42
C7A C66U	0.697
C6U C12A	0.676
C6U C12U	0.987
C6U C12G	0.726
C7G G41U	0.121
C7A A59U	0.157
C7A A59G	0.469
C7G C45U	0.425
C7G C45G	0.295
C7G C45A	0.378

Variant	self-cleavage
C7A U62A	0.275
C7A U62C	0.269
C7G U43G	0.29
C7G U43A	0.274
C7G C9G	0.966
C7G C9A	0.898
C7A U67C	0.807
C6U U26C	0.893
C6U U26A	0.833
C6U U64G	0.92
C6U U64C	0.829
C6U U64A	0.853
C7G A42C	0.198
C7G A42G	0.306
C6U G56U	0.968
C6U G56C	0.772
C7G A23C	0.319
C7G C33A	0.147
C7G C33G	0.146
C7G G14C	0.0631
C7G G14U	0.0864
C7A G50U	0.54
C7A G50A	0.617
C7A U38A	0.191

Variant	self-cleavage
C7A U38C	0.221
C7G C66U	0.459
C7G C66G	0.176
C7G C66A	0.134
C6U C66U	0.991
C6U C66G	0.939
C6U C66A	0.881
C7G U21C	0.173
C7A G30C	0.661
C7A G30A	0.826
C7A G30U	0.9
C7A A10C	0.76
C7A A10G	0.865
C7A A8G	0.8
C7A A8U	0.769
C6U C18A	0.119
C7G C54A	0.138
C7G C54G	0.17
C7G C54U	0.507
C7A C45G	0.421
C7A C35U	0.222
C7A C35G	0.156
C7G C57U	0.158
C7G C57G	0.189

Variant	self-cleavage
C6U U53G	0.719
C6U U53A	0.977
C6U U53C	0.914
C7A U26C	0.357
C7A U26G	0.274
C7G C35U	0.248
C7G C35G	0.0899
C6U G48A	1.03
C6U G48C	0.995
C7A G25A	0.163
C7A G25U	0.111
C7A G25C	0.144
C7G C39G	0.236
C7G C39U	0.326
C7G C39A	0.141
C6U G19C	0.124
C6U G19A	0.117
C6U C29G	0.259
C7A C63U	0.515
C7A C22G	0.0999
C7G G56C	0.211
C7G G56A	0.333
C6U C57G	0.266
C6U C57U	0.363

Variant	self-cleavage
C6U C57A	0.362
C7G A40U	0.161
C7G A40G	0.376
C6U C34A	0.426
C6U C34U	0.944
C6U G50A	0.982
C7A U69A	0.875
C7A U69G	0.897
C7A C12G	0.378
C7A C12A	0.147
C7G C18G	0.116
C7G C18U	0.107
C7A A51G	0.514
C7A A51C	0.477
C6U U69G	1.04
C6U U69A	1.05
C7G A60U	0.187
C7G A60G	0.175
C7G C34U	0.325
C7G C34G	0.0956
C7G C34A	0.109
C7A U43C	0.388
C6U C33U	0.863
C7G G48U	0.548

Variant	self-cleavage
C7G G48A	0.457
C6U C54G	0.733
C6U C54A	0.847
C7G A16G	0.329
C7G A16U	0.0326
C7G A16C	0.0882
C7G C27U	0.0215
C7G C27G	0.112
C7A C24G	0.0158
C7A C24U	0.192
C7A C24A	0.161
C7G A59G	0.307
C6U G14A	0.672
C7A U53G	0.177
C6U C7A	0.254
C6U C7G	0.198
C6U U21C	0.827
C6U U21G	0.329
C7G G58U	0.528
C7G G58C	0.285
C7A G19U	0.163
C7A G19C	0.143
C7A G68A	0.984
C7A G68U	0.937

Variant	self-cleavage
C7A G58A	0.338
C7A G58U	0.645
C6U C63U	1.01
C6U C63G	0.808
C7A C9U	0.934
C7A C9G	0.639
C7A U44C	0.432
C7A U44G	0.305
C7A U64A	0.359
C7A U64G	0.355
C6U U67G	0.995
C7A C54U	0.614
C7A C54A	0.318
C7A A16U	0.222
C7G C32U	0.177
C7G C32G	0.106
C6U G68U	1.02
C6U G68C	0.999
C6U G68A	1.03
C7A C18A	0.0823
C7G	0.497
C7A	0.643
C6U G28A	0.0973
C6U G28C	0.0878

Variant	self-cleavage
C7A G14C	0.137
C7A G14A	0.167
C7A G14U	0.131
C6U G31U	0.914
C6U G31C	0.536
C6U G25C	0.13
C6U U61C	0.647
C6U U61G	0.809
C6U U61A	0.736
C6U G30A	0.632
C6U G30U	0.235
C6U G30C	0.348
C7G G17A	0.11
C6U U43A	0.917
C7A U20C	0.211
C7A U20A	0.0917
C7A U20G	0.127
C7A C32G	0.126
C7A C32U	0.359
C6U C9U	1.05
C6U C9A	1.03
C6U C9G	1.02
